Tests used:
[1] = of the fluorescence efficiency of fluorescein; cited from earlier work
[2] = Blood clearance vs time, bi-phasic exponential decay curve fit; type: in vivo, rat; details: rats
[3] = Optical biodistribution (ADME profile) in MatBIII orthotopic tumor model; type: in vivo, rat; details: for Biodistribution, Bladder / Biodistribution, Blood / Biodistribution, Eye / Biodistribution, Kidney / Biodistribution, Liver / Biodistribution, Skin / Biodistribution, Spleen / Biodistribution, Tumor: MatBIII tumor-bearing rats, 125 nmol/kg
Protocol: (§1) In vivo studies were carried out with female Fischer 344 rats or severe combined immunodeficient (SCID) mice, each with an age between 4 and 8 weeks. Animals were housed with non-fluorescent food (Harlan Labs, cat. #TD.97184) and water ad libitum and a standard 12 hour day-night lighting cycle. 1×10^6 cells (100 μL) were injected, using a 27 gauge needle, directly orthotopically into the mammary fat pad of the animal. After allowing 7 days for MatBIII tumor growth (˜1 cm in diameter), animals were injected with test agent and imaged.
The ADME profile of Compound 1 was studied by performing optical biodistribution studies in the MatB III in vivo orthotopic tumor model. Thus, a dose of 125 nmol/kg (volume ˜250-300 μL) was used for the study with an equal volume of PBS used as a negative control. For naïve animals, each tissue type was split into four tubes to ensure sufficient volume for standard preparation. Tissues included blood, bladder/urine, liver, kidney, spleen, eyes, fat, muscle, tumor, and skin collected from the contralateral side from tumor. Using the supernatant from naïve samples (pooled by tissue type), standards were made by adding agent at concentrations of 75 μM, 37.5 μM, 3.75 μM, 0.375 μM and 0 μM, dilutions made with PBS. This yielded a final concentration of 20% injected dose (ID), 10%, 1%, […] and 0. To determine the amount of dye contained in each tissue type, 90 μL of sample or standard was read on a spectrophotometer at settings of 710 excitation/805 Emission.
Samples were adjusted for weight, but there was some sample-to-sample variation.

MatBIII tumour model = assay: In vivo fluorescence imaging in the rat MatBIII tumour model; details: fluorescence image 1 hour after iv injection, FIG. 2
Protocol: as §1
Compound 1 was studied in the MatBIII model described in Example 3. The dose was either 125 or 250 nmol dye/kg body weight. The fluorescence imaging system was comprised of a 12 bit cooled CCD camera (Hamamatsu ORCA), and with a 735 laser source providing the excitation light. The fluorescence signal was filtered with a band pass emission filter set (810 nm centre frequency, 90 nm bandwidth). 50 ms exposure time was used with 2×2 binning.
For immobilisation during the optical imaging procedure, the animals were anaesthetized in a coaxial open mask to surgical level anaesthesia with Isoflurane (typically 2-3%) with oxygen as the carrier gas. During injection and intermediate time point imaging a lighter anaesthesia level was used. The animals were imaged from above, lying on their backs. […]

For `CC1(C)C(/C=C/C=C/C=C/C=C2\N(CCCCS(=O)(=O)O)c3ccc4ccccc4c3C2(C)C)=[N+](CCCCS(=O)(=O)[O-])c2ccc3ccccc3c21` [ICG, indocyanine green], the “Fluorescence efficiency relative to fluorescein” value [1] is given as 4%.

In the case of Bis-Cy7 PEG-31k Conjugate [Compound 1], the “Blood half-life t1/2α” value [2] is reported as 4.6 min, the “Blood half-life t1/2β” value [2] is reported as 4.33 h and the “Retention of the agent in all of the collected tissues” value ([3]; 48 h post injection) is reported as less than 1 % ID/g. For the same compound, the “Biodistribution, Bladder” value ([3]; 2 min) was 0.00 % ID/g, the “Biodistribution, Blood” value ([3]; 2 min) was 6.56 % ID/g and the “Biodistribution, Eye” value ([3]; 2 min) was 1.93 % ID/g. For the same compound, the “Biodistribution, Kidney” value ([3]; 2 min) was 0.12 % ID/g, the “Biodistribution, Liver” value ([3]; 2 min) was 0.24 % ID/g and the “Biodistribution, Skin” value ([3]; 2 min) was 0.00 % ID/g. The “Biodistribution, Spleen” value ([3]; 2 min) was 0.64 % ID/g, the “Biodistribution, Tumor” value ([3]; 2 min) was 0.00 % ID/g and the “Biodistribution, Bladder” value ([3]; 5 min) was 0.23 % ID/g. The “Biodistribution, Blood” value ([3]; 5 min) was 5.65 % ID/g, the “Biodistribution, Eye” value ([3]; 5 min) was 0.14 % ID/g and the “Biodistribution, Kidney” value ([3]; 5 min) was 1.35 % ID/g. The “Biodistribution, Liver” value ([3]; 5 min) was 0.46 % ID/g, the “Biodistribution, Skin” value ([3]; 5 min) was 0.56 % ID/g and the “Biodistribution, Spleen” value ([3]; 5 min) was 0.64 % ID/g. The “Biodistribution, Tumor” value ([3]; 5 min) was 0.53 % ID/g, the “Biodistribution, Bladder” value ([3]; 10 min) was 1.24 % ID/g and the “Biodistribution, Blood” value ([3]; 10 min) was 4.26 % ID/g. The “Biodistribution, Eye” value ([3]; 10 min) was 1.70 % ID/g, the “Biodistribution, Kidney” value ([3]; 10 min) was 0.41 % ID/g and the “Biodistribution, Liver” value ([3]; 10 min) was 0.03 % ID/g. The “Biodistribution, Skin” value ([3]; 10 min) was 0.00 % ID/g, the “Biodistribution, Spleen” value ([3]; 10 min) was 1.00 % ID/g and the “Biodistribution, Tumor” value ([3]; 10 min) was 0.00 % ID/g. The “Biodistribution, Bladder” value ([3]; 60 min) was 0.86 % ID/g, the “Biodistribution, Blood” value ([3]; 60 min) was 3.05 % ID/g and the “Biodistribution, Eye” value ([3]; 60 min) was 0.33 % ID/g. For the same compound, the “Biodistribution, Kidney” value ([3]; 60 min) was 0.51 % ID/g, the “Biodistribution, Liver” value ([3]; 60 min) was 1.02 % ID/g and the “Biodistribution, Skin” value ([3]; 60 min) was 0.05 % ID/g. The “Biodistribution, Spleen” value ([3]; 60 min) was 0.28 % ID/g, the “Biodistribution, Tumor” value ([3]; 60 min) was 0.00 % ID/g and the “Biodistribution, Bladder” value ([3]; 180 min) was 0.00 % ID/g. The “Biodistribution, Blood” value ([3]; 180 min) was 2.19 % ID/g, the “Biodistribution, Eye” value ([3]; 180 min) was 0.12 % ID/g and the “Biodistribution, Kidney” value ([3]; 180 min) was 0.63 % ID/g. For the same compound, the “Biodistribution, Liver” value ([3]; 180 min) was 2.04 % ID/g, the “Biodistribution, Skin” value ([3]; 180 min) was 0.06 % ID/g and the “Biodistribution, Spleen” value ([3]; 180 min) was 0.32 % ID/g. The “Biodistribution, Tumor” value ([3]; 180 min) was 0.05 % ID/g, the “Biodistribution, Bladder” value ([3]; 2880 min) was 0.00 % ID/g and the “Biodistribution, Blood” value ([3]; 2880 min) was 0.02 % ID/g. For the same compound, the “Biodistribution, Eye” value ([3]; 2880 min) was 0.44 % ID/g, the “Biodistribution, Kidney” value ([3]; 2880 min) was 0.00 % ID/g and the “Biodistribution, Liver” value ([3]; 2880 min) was 0.23 % ID/g. The “Biodistribution, Skin” value ([3]; 2880 min) was 0.00 % ID/g, the “Biodistribution, Spleen” value ([3]; 2880 min) was 0.00 % ID/g and the “Biodistribution, Tumor” value ([3]; 2880 min) was 0.61 % ID/g. The “Image contrast of blood vessels and blood-rich tumour” value (MatBIII tumour model) was “positive image contrast”.

Reference: patent publication US20130331690A1, “VASCULAR IMAGING AGENTS” (GE HEALTHCARE AS, priority 2010, published 2013)
